This is an account of results in patent publication US20140072580, “NOVEL TARGETS FOR TREATMENT OF HYPERCHOLESTEROLEMIA” (THE REGENTS OF THE UNIVERSITY OF CALIFORNIA, published 2014).

Substitutions are numbered along the chain they refer to.

For data set [1], the target named is T1, LXR/RXR heterodimer (LXRalpha (NR1H3)/RXR; isoforms in EMSA not stated) (UniProt Q9Z0Y9;P28700 Q9Z0Y9:1-445,P28700:1-467).
T1 sequence 1: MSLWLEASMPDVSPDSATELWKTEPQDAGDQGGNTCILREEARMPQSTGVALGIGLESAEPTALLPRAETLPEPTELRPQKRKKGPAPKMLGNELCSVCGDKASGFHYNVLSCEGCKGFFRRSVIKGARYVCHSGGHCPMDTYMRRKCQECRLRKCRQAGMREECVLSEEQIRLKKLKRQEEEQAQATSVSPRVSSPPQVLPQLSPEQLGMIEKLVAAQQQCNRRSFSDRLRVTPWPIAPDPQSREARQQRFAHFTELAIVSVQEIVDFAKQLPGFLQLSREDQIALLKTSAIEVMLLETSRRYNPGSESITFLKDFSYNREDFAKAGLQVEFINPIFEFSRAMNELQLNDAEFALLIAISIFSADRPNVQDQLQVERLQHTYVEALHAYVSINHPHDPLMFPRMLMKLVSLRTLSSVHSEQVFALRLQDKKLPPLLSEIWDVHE
T1 sequence 2: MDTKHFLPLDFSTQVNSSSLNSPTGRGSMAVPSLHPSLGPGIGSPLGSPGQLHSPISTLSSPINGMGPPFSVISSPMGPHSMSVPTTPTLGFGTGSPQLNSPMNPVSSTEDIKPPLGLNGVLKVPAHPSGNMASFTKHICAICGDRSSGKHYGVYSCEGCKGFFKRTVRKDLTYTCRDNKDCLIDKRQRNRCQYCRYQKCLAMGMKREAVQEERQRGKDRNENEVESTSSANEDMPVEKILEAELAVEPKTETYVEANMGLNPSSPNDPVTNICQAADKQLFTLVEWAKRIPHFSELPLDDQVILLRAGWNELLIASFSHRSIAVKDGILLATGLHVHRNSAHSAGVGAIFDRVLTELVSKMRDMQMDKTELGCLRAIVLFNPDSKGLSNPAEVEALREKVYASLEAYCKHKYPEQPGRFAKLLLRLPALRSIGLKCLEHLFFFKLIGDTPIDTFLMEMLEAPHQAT
The data set is described as follows: EMSA; binding competed by excess unlabeled Mylip LXRE; protein source not stated. Conditions: label: radiolabeled. How it is done: (§1) It also could not be secondary to induction of SREBP-1c, because oxysterols that block SREBP processing still induced Mylip expression (FIG. 6B). LXRs activate target genes by binding to consensus elements (LXREs) in their promoters. We identified an LXRE approximately 2.5 kb upstream of the mouse Mylip translation start site (FIG. 6C) and generated a reporter construct encompassing this region.
(§2) A 10 Kb promotor region upstream of the mMylip transcription initiation site was analyzed for the presence of LXR binding elements. A consensus DR4 site was identified 2454 upstream of the transcription initiation site. Olignoucleotides encompassing this element were designed, annealed and tested for binding to LXR/RXR heterodimers in a standard EMSA assay. A 2.5 kB promotor fragment upstream of the transcription initiation site containing the identified LXRE was amplified by PCR from BAC clone RP23-17N24 using mMylip-prom-FWD […] (SEQ ID NO:20) or mMylip-prom-ΔFWD […] (SEQ ID NO:21) with the common antisense primer mMylip-prom-REV […] (SEQ ID NO:22). Amplified fragments were cloned as SacI/XhoI fragments into pGL3 basic (Promega). Promotor analysis was done as previously described (Joseph et al. (2002) J Biol Chem 277: 11019).

For data set [2], the target named is T1, LXR/RXR heterodimer (LXRalpha …). Briefly: EMSA; no binding to mutant LXRE. Conditions: label: radiolabeled. On the procedure: as §1, §2

B1: Mylip WT DR4 LXRE (dsDNA)
DNA 1: TCCCTACTTAACCTACAATGACCTCAAGTTTC
DNA 2: GAAACTTGAGGTCATTGTAGGTTAAGTAGGGA
As for B1, in data set [1], the binding result is given as “binds”.

B2: Mylip MUT DR4 LXRE (dsDNA)
DNA 1: B1 DNA 1 with A11T, C12T, A21T, C22T
DNA 2: B1 DNA 2 with G11A, T12A, G21A, T22A
Regarding B2, the binding result in data set [2] is listed as “no binding”.
